# US20150344570A1 (published 2015)
# Biological target: T1, FcγRIa (human, UniProt P12314 16-292)
# T1 construct: extracellular domain; soluble extracellular domain with C-terminal His tag, expressed in FreeStyle293 cells; also called FcgRI; FcgRIa
# Test: SPR (Biacore), captured antibody, FcγRIa analyte; relative to HeCon Ab GpH7-A5/GpH7-B3/GpL16-k0 = 100
# T1 sequence (P12314 16-292): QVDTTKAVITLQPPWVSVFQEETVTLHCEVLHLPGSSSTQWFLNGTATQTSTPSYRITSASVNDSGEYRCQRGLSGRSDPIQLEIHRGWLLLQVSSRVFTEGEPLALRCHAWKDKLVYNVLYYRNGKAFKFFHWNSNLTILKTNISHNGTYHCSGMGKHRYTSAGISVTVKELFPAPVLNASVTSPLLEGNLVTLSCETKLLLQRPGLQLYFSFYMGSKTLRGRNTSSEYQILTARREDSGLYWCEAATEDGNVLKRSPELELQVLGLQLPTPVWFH
row,Binder,He/Con_1a
1,"GpH7-A5/GpH7-B3 variant S239_01G/GpL16-k0 (antibody, human IgG1, kappa, heterodimerized IgG1, mutation in one H chain; also called He Ab) heavy 1: not shown heavy 2: not shown light: DIVMTQSPLSLPVTPGEPASISCQASESLVHSNRNTYLHWYLQKPGQSPQLLIYKVSNRFSGVPDRFSGSGSGTDFTLKISRVEAEDVGVYYCSQNTHVPPTFGQGTKVEIERTVAAPSVFIFPPSDEQLKSGTASVVCLLNNFYPREAKVQWKVDNALQSGNSQESVTEQDSKDSTYSLSSTLTLSKADYEKHKVYACEVTHQGLSSPVTKSFNRGEC",101 % of control
2,"GpH7-A5/GpH7-B3 variant S267_02A/GpL16-k0 (antibody, human IgG1, kappa, heterodimerized IgG1, mutation in one H chain; also called He Ab) heavy 1: not shown heavy 2: not shown light: DIVMTQSPLSLPVTPGEPASISCQASESLVHSNRNTYLHWYLQKPGQSPQLLIYKVSNRFSGVPDRFSGSGSGTDFTLKISRVEAEDVGVYYCSQNTHVPPTFGQGTKVEIERTVAAPSVFIFPPSDEQLKSGTASVVCLLNNFYPREAKVQWKVDNALQSGNSQESVTEQDSKDSTYSLSSTLTLSKADYEKHKVYACEVTHQGLSSPVTKSFNRGEC",109 % of control
3,"GpH7-A5/GpH7-B3 variant S267_01G/GpL16-k0 (antibody, human IgG1, kappa, heterodimerized IgG1, mutation in one H chain; also called He Ab) heavy 1: not shown heavy 2: not shown light: DIVMTQSPLSLPVTPGEPASISCQASESLVHSNRNTYLHWYLQKPGQSPQLLIYKVSNRFSGVPDRFSGSGSGTDFTLKISRVEAEDVGVYYCSQNTHVPPTFGQGTKVEIERTVAAPSVFIFPPSDEQLKSGTASVVCLLNNFYPREAKVQWKVDNALQSGNSQESVTEQDSKDSTYSLSSTLTLSKADYEKHKVYACEVTHQGLSSPVTKSFNRGEC",103 % of control
4,"GpH7-A5/GpH7-B3 variant S267_03V/GpL16-k0 (antibody, human IgG1, kappa, heterodimerized IgG1, mutation in one H chain; also called He Ab) heavy 1: not shown heavy 2: not shown light: DIVMTQSPLSLPVTPGEPASISCQASESLVHSNRNTYLHWYLQKPGQSPQLLIYKVSNRFSGVPDRFSGSGSGTDFTLKISRVEAEDVGVYYCSQNTHVPPTFGQGTKVEIERTVAAPSVFIFPPSDEQLKSGTASVVCLLNNFYPREAKVQWKVDNALQSGNSQESVTEQDSKDSTYSLSSTLTLSKADYEKHKVYACEVTHQGLSSPVTKSFNRGEC",106 % of control
5,"GpH7-A5/GpH7-B3 variant S239_09D/GpL16-k0 (antibody, human IgG1, kappa, heterodimerized IgG1, mutation in one H chain; also called He Ab) heavy 1: not shown heavy 2: not shown light: DIVMTQSPLSLPVTPGEPASISCQASESLVHSNRNTYLHWYLQKPGQSPQLLIYKVSNRFSGVPDRFSGSGSGTDFTLKISRVEAEDVGVYYCSQNTHVPPTFGQGTKVEIERTVAAPSVFIFPPSDEQLKSGTASVVCLLNNFYPREAKVQWKVDNALQSGNSQESVTEQDSKDSTYSLSSTLTLSKADYEKHKVYACEVTHQGLSSPVTKSFNRGEC",101 % of control

# Results, then the binder that gave them:
row,He/Con_1a,Binder
1,107 % of control,"GpH7-A5/GpH7-B3 variant S298_08L/GpL16-k0 (antibody, human IgG1, kappa, heterodimerized IgG1, mutation in one H chain; also called He Ab) heavy 1: not shown heavy 2: not shown light: DIVMTQSPLSLPVTPGEPASISCQASESLVHSNRNTYLHWYLQKPGQSPQLLIYKVSNRFSGVPDRFSGSGSGTDFTLKISRVEAEDVGVYYCSQNTHVPPTFGQGTKVEIERTVAAPSVFIFPPSDEQLKSGTASVVCLLNNFYPREAKVQWKVDNALQSGNSQESVTEQDSKDSTYSLSSTLTLSKADYEKHKVYACEVTHQGLSSPVTKSFNRGEC"
2,110 % of control,"GpH7-A5/GpH7-B3 variant S298_03V/GpL16-k0 (antibody, human IgG1, kappa, heterodimerized IgG1, mutation in one H chain; also called He Ab) heavy 1: not shown heavy 2: not shown light: DIVMTQSPLSLPVTPGEPASISCQASESLVHSNRNTYLHWYLQKPGQSPQLLIYKVSNRFSGVPDRFSGSGSGTDFTLKISRVEAEDVGVYYCSQNTHVPPTFGQGTKVEIERTVAAPSVFIFPPSDEQLKSGTASVVCLLNNFYPREAKVQWKVDNALQSGNSQESVTEQDSKDSTYSLSSTLTLSKADYEKHKVYACEVTHQGLSSPVTKSFNRGEC"
3,107 % of control,"GpH7-A5/GpH7-B3 variant S298_07I/GpL16-k0 (antibody, human IgG1, kappa, heterodimerized IgG1, mutation in one H chain; also called He Ab) heavy 1: not shown heavy 2: not shown light: DIVMTQSPLSLPVTPGEPASISCQASESLVHSNRNTYLHWYLQKPGQSPQLLIYKVSNRFSGVPDRFSGSGSGTDFTLKISRVEAEDVGVYYCSQNTHVPPTFGQGTKVEIERTVAAPSVFIFPPSDEQLKSGTASVVCLLNNFYPREAKVQWKVDNALQSGNSQESVTEQDSKDSTYSLSSTLTLSKADYEKHKVYACEVTHQGLSSPVTKSFNRGEC"
4,110 % of control,"GpH7-A5/GpH7-B3 variant S267_09D/GpL16-k0 (antibody, human IgG1, kappa, heterodimerized IgG1, mutation in one H chain; also called He Ab) heavy 1: not shown heavy 2: not shown light: DIVMTQSPLSLPVTPGEPASISCQASESLVHSNRNTYLHWYLQKPGQSPQLLIYKVSNRFSGVPDRFSGSGSGTDFTLKISRVEAEDVGVYYCSQNTHVPPTFGQGTKVEIERTVAAPSVFIFPPSDEQLKSGTASVVCLLNNFYPREAKVQWKVDNALQSGNSQESVTEQDSKDSTYSLSSTLTLSKADYEKHKVYACEVTHQGLSSPVTKSFNRGEC"
